# Results published in US20180251563A1.
# B1: SEQ ID NO 35 (designed binder)
# chain: MGSWSEFYNRLDAIESRLLALGGSEAELALFEIQIARFEKVLQAYKGKGNPEVEALRGEARAIFAELYAYRHN
# B2: SEQ ID NO 36 (designed binder)
# chain: MGSWYEFYNRLYAIEIRLYALGGSEAELAAFEKEIAAFESELQAYKGKGNPEVERLRVRAAKIRVILQAYRHN
# B3: SEQ ID NO 37 (designed binder)
# chain: MGSWLWFKIFLAEIKYFLEALGGSEAELAAFDFEIHAFHVELFAYKGKGNPEVEVLREVAAEIRWDLQAYRHN
# Molecular target: KIR-Fc
# Experiment: phage ELISA, target-Fc against non-specific control
row,Binder,ELISA ratio (target to background)
1,B1,8.4
2,B2,4.24
3,B3,4.17
